Assay results from PMC3098174.
Where two headings read alike, the source gives them in different places.

Assays:
[1] = biological target: turkey pancreatic lipase (turkey)
[2] = biological target: Stingray Pancreatic Lipase (Dasyatis pastinaca) (common stingray Dasyatis pastinaca)
[3] = biological target: dromedary pancreatic lipase (dromedary)
[4] = biological target: chicken pancreatic lipase (chicken)
[5] = biological target: Stingray Pancreatic Lipase (Dasyatis pastinaca) (common stingray Dasyatis pastinaca); test: lipase activity titration with colipase, Scatchard plot; apparent Kd from the slope of Scatchard plots; lipase (2.1 nM) with increasing amounts of colipase, emulsified olive oil as substrate, 6 mM NaTDC, pH 8.5, 37°C, pH-stat
[6] = biological target: Stingray Pancreatic Lipase (Dasyatis pastinaca) (common stingray Dasyatis pastinaca); remark: listed apart in the source
[7] = biological target: turkey pancreatic lipase (turkey); test: lipase activity titration with colipase, Scatchard plot; apparent Kd from the slope of Scatchard plots; lipase (2.1 nM) with increasing amounts of colipase, emulsified olive oil as substrate, 6 mM NaTDC, pH 8.5, 37°C, pH-stat
[8] = biological target: Stingray Pancreatic Lipase (Dasyatis pastinaca) (common stingray Dasyatis pastinaca); test: as above; remark: listed apart in the source
[9] = biological target: dromedary pancreatic lipase (dromedary); test: as above
[10] = biological target: chicken pancreatic lipase (chicken); test: as above

Stingray Pancreatic Lipase (Dasyatis pastinaca) (common stingray Dasyatis pastinaca), sequence (A0A059TA26 entry or part of it): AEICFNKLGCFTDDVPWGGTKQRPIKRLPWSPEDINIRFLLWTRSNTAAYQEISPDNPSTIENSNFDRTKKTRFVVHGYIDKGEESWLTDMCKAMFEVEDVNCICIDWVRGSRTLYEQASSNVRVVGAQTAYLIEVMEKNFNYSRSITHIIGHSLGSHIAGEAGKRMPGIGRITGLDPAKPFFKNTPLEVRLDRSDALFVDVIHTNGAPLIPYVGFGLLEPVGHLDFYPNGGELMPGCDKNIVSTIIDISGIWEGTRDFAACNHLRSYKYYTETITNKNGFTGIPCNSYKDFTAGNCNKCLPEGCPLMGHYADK

Row | kcat/Kd of lipase activated by stingray colipase (olive oil emulsion, 6 mM NaTDC) (S^-1 M^-1 10^-9) [1] | kcat/Kd of lipase activated by stingray colipase (olive oil emulsion, 6 mM NaTDC) (S^-1 M^-1 10^-9) [2] | kcat/Kd of lipase activated by stingray colipase (olive oil emulsion, 6 mM NaTDC) (S^-1 M^-1 10^-9) [3] | kcat/Kd of lipase activated by stingray colipase (olive oil emulsion, 6 mM NaTDC) (S^-1 M^-1 10^-9) [4] | Kd [5] [nM] | kcat/Kd of SPL activated by colipase (olive oil emulsion, 6 mM NaTDC) (S^-1 M^-1 10^-9) [6] | Kd [7] [nM] | Kd [8] [nM] | Kd [9] [nM] | Kd [10] [nM] | Substance
1 | 946 | 2070 | 930 | 611 | 1.2 | 2070 | 2.9 | 1.15 | 3 | 4.5 | stingray pancreatic colipase (Dasyatis pastinaca) (natural protein)
2 | – | – | – | – | 3.6 | 599 | – | – | – | – | turkey pancreatic colipase (natural protein)
3 | – | – | – | – | 2.2 | 1140 | – | – | – | – | dromedary pancreatic colipase (natural protein)
4 | – | – | – | – | 3.9 | 576 | – | – | – | – | chicken pancreatic colipase (natural protein)
